The data set concerns the target T1, H-NS (Shewanella oneidensis MR-1) (UniProt Q8ECJ6).
T1 sequence: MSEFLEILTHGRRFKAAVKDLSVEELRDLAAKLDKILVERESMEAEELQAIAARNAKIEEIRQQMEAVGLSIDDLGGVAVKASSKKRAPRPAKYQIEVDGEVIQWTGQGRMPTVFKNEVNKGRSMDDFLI
Nature of the data set: EMSA. Particulars: H-NS incubated with biotin-labelled probe with or without unlabelled probe, 1 h at different temperatures; binding buffer not stated (refers to Liu et al. 2015).

On to “TAGCGATGAAATGGCTTTTTGGGTGGCGGTTTATCGTGATTAACGCAGAAGGTGAAGCGTGGTACATCGATGTTAAACCTGATGCCAAAGTAAAACCTGTTGGTAAAAATAAGGACGGTGCATAATGTTTCAGCAAGAAATAGAAGCTATGCAGGGTAAAGTGGTGCAGCAG (double strand) [PSO_3012 (LambdaSo excisionase promoter)]”, for which the binding entry is “no binding”.

With “GATTTTCTAGTGACAGAAGGTTTTAGCGTTGATAATGCCAAATATGCTGAATTATTTTTGAGACCGAGTAAATTTCTTAGGGGACCAAAAAAACGCATATAATACAATGGATAATGCAATTTAGGTGAGCAAAGGGGACCGTTTTTACCCCGTTTATTCATGCTTCATAACCATCTAATCTCAGGGTTGTAGACGTTTATTCACAACTCTGAGGACGATTATGAACACAACTCTCAC (double strand) [PalpA (alpA promoter)]”, the binding result is listed as “binds”.
